Source: US11230581B2, “Peptides and combination of peptides for use in immunotherapy against ovarian cancer and other cancers” (Immatics Biotechnologies GmbH, priority 2015, dated 2022)

Target: HLA-A*02:01 (Homo sapiens, UniProt P04439, D140Y/D185E/D98H/E176V/E277Q/G131W/G231S/I119V/I121R/I166T/I218V/L300P/L318F/N151K/N90K/P208A/P217A/Q86G/Q94H/R138H/R169H/T345S)
Assay: MHC binding assay (UV-ligand exchange, β2m ELISA, peptide exchange yield)
Settings: binding of HLA-class I restricted peptides to HLA-A*02:01, UV-ligand exchange
In short: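 Peptide-MHC complexes formed by UV-ligand exchange, cleaving a UV-sensitive placeholder peptide in favour of the test peptide. Exchange yield measured by ELISA: monomers diluted 100-fold onto streptavidin-coated plates, 1 h 37 °C, detected with 2 ug/ml HRP anti-β2m and TMB, absorbance at 450 nm.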

Substance | Peptide exchange (MHC class I binding score, peptide exchange yield)
147 (SLLEAVSFL; listed as Homo sapiens) [compound 147] | “+++” (≥50 = +++)
173 (LLDSASAGLYL; listed as Homo sapiens) [compound 173] | “+++” (≥50 = +++)
140 (YMDAPKAAL; listed as Homo sapiens) [compound 140] | “++” (≥20% = ++)
80 (FLYDNLVESL; listed as Homo sapiens) [compound 80] | “++” (≥20% = ++)
495 (FIFSEKPVFV; listed as Homo sapiens) [compound 495] | “+++” (≥50 = +++)
614 (LLLPDQPPYHL; listed as Homo sapiens) [compound 614] | “+++” (≥50 = +++)
289 (VLLEIEDLQV; listed as Homo sapiens) [compound 289] | “++++” (≥75% = ++++)
486 (AVMESIQGV; listed as Homo sapiens) [compound 486] | “+++” (≥50 = +++)
592 (RLLSAAENFL; listed as Homo sapiens) [compound 592] | “+++” (≥50 = +++)
61 (FLQGYQLHL; listed as Homo sapiens) [compound 61] | “++++” (≥75% = ++++)
557 (KLYDDMIRL; listed as Homo sapiens) [compound 557] | “+++” (≥50 = +++)
5 (HLTEVYPEL; listed as Homo sapiens) [compound 5] | “+++” (≥50 = +++)
571 (LLLTTIPQI; listed as Homo sapiens) [compound 571] | “+++” (≥50 = +++)
71 (GILARIASV; listed as Homo sapiens) [compound 71] | “+++” (≥50 = +++)
179 (KVLNELYTV; listed as Homo sapiens) [compound 179] | “+++” (≥50 = +++)
77 (ILVEADGAWVV; listed as Homo sapiens) [compound 77] | “++++” (≥75% = ++++)
591 (SMAELDIKL; listed as Homo sapiens) [compound 591] | “+++” (≥50 = +++)
253 (GLDAATATV; listed as Homo sapiens) [compound 253] | “++” (≥20% = ++)
42 (VLLQKIVSA; listed as Homo sapiens) [compound 42] | “+++” (≥50 = +++)
129 (GLLDGGVDILL; listed as Homo sapiens) [compound 129] | “+++” (≥50 = +++)
252 (LLIGTDVSL; listed as Homo sapiens) [compound 252] | “+++” (≥50 = +++)
23 (VLLDDIFAQL; listed as Homo sapiens) [compound 23] | “+++” (≥50 = +++)
242 (AIAYILQGV; listed as Homo sapiens) [compound 242] | “++” (≥20% = ++)
137 (TLVLTLPTV; listed as Homo sapiens) [compound 137] | “++++” (≥75% = ++++)
68 (SLMELPRGLFL; listed as Homo sapiens) [compound 68] | “++++” (≥75% = ++++)
